Residue numbers refer to the chain shown, from its start. Numbers in names are those of the source. Where only a bound is given, the exact number is not on record here.

The values that follow come from paper PMC9352680, “A comprehensive thermodynamic model for RNA binding by the Saccharomyces cerevisiae Pumilio protein PUF4”.

In the data set the target is T1, PUF4 RNA-binding domain (Saccharomyces cerevisiae, UniProt P25339 537-888).
T1 sequence: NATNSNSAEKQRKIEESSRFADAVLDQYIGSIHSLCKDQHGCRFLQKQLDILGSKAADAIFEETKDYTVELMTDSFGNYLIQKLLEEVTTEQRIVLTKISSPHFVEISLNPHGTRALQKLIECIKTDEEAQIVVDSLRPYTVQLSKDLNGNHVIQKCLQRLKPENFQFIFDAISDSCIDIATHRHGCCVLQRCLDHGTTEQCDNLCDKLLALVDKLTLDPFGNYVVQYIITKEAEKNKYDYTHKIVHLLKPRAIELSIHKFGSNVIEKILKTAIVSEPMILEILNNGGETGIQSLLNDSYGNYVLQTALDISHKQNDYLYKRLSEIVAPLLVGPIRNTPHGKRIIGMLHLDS
The experiment in a line: Mg; RNA-MaP; 20 mM Na-HEPES pH 7.4, 30 mM KOAc, 0.75 mM MgCl2, 0.1% Tween-20, 5% glycerol, 0.1 mg/mL BSA, 2 mM DTT; 25 C; 0.0125-409.6 nM protein. Conditions: tags: N-His6-TEV cleaved; C-SNAP kept, Cy3B-labelled; label: tethered on chip by stalled RNA polymerase.

One may read the Kd as the free concentration of one partner at which half of the binding sites on the other are occupied at equilibrium, for simple one-to-one binding. For the molecule UCUCUUUGUAUUUUCUCUCUU (ssRNA) [Ic_S1_P4E.1_K4.1_C4.1_H4.1_A4.1_[A6T]_F4.1_[A9C]_T4.1], the Kd was found to be 36 nM.

B1: Ic_S4_P5E.1_K5.1_C5.1_H5.1_A5.1_[T6A]_[A7C]_F5.1_[T8C]_[T9C]_[A10T]_T5.1 (ssRNA)
RNA: UUUGACAACUGAUCGUUCUUUCUUGUAUACCCUUUCUUUCUCGAUCAGUUGUCUUU
Take B1: binding was characterised by a dissociation constant (Kd) of 36.1 nM.

B2: Ic_S4_P5E.1_K5.1_C5.1_H5.1_A5.1_[T5A]_[T6C]_[A7T]_F5.1_[T8C]_[T9A]_[A10T]_T5.1 (ssRNA)
RNA: B1 RNA with U28A, A29C, C30U, C32A
B2 yielded a dissociation constant (Kd) of 325 nM.

B3: Ic_S4_P5E.1_K5.1_C5.1_H5.1_A5.1_[T5C]_[T6A]_[A7C]_F5.1_[T9C]_[A10C]_T5.1 (ssRNA)
RNA: B1 RNA with U28C, C31U, U33C
In turn, B3 came in with a dissociation constant Kd of 6.67 nM.

B4: Ic_S4_P5E.1_K5.1_C5.1_H5.1_A5.1_[A7T]_F5.1_[T8G]_[T9C]_[A10T]_T5.1 (ssRNA)
RNA: B1 RNA with A29U, C30U, C31G
B4 showed a Kd of 80.4 nM.

B5: Ic_S4_P5E.1_K5.1_C5.1_H5.1_A5.1_[T6A]_F5.1_[T9G]_[A10G]_T5.1 (ssRNA)
RNA: B1 RNA with C30A, C31U, C32G, U33G
Regarding B5, the Kd turned out to be 16.6 nM.

B6: Ic_S4_P5E.1_K5.1_C5.1_H5.1_A5.1_[T5G]_[T6C]_[A7T]_F5.1_[T8A]_[A10T]_T5.1 (ssRNA)
RNA: B1 RNA with U28G, A29C, C30U, C31A, C32U
On to B6, for which the Kd was 56.6 nM.

B7: Ic_S4_P5E.1_K5.1_C5.1_H5.1_A5.1_[T5A]_[T6A]_[A7T]_F5.1_[T8A]_[T9A]_[A10C]_T5.1 (ssRNA)
RNA: B1 RNA with U28A, C30U, C31A, C32A, U33C
B7 gave a dissociation constant Kd of 26.6 nM.

B8: Ic_S4_P5E.1_K5.1_C5.1_H5.1_A5.1_[T5A]_F5.1_[T8A]_[A10T]_T5.1 (ssRNA)
RNA: B1 RNA with U28A, A29U, C30A, C31A, C32U
Molecule B8 displayed a Kd of 95.2 nM.

B9: Ic_S4_P5E.1_K5.1_C5.1_H5.1_A5.1_[T6A]_[A7C]_F5.1_[T8A]_[T9C]_[A10T]_T5.1 (ssRNA)
RNA: B1 RNA with C31A
In turn, B9 displayed a Kd of 75.1 nM.

B10: Ic_S4_P5E.1_K5.1_C5.1_H5.1_A5.1_[T5C]_[T6C]_[A7G]_F5.1_[T8G]_[T9C]_[A10C]_T5.1 (ssRNA)
RNA: B1 RNA with U28C, A29C, C30G, C31G, U33C
In turn, B10 displayed a Kd above 2300 nM.

B11: Ic_S4_P5E.1_K5.1_C5.1_H5.1_A5.1_[T5C]_[T6C]_[A7C]_F5.1_[T8G]_[T9C]_[A10G]_T5.1 (ssRNA)
RNA: B1 RNA with U28C, A29C, C31G, U33G
In the case of B11, the affinity, expressed as Kd, was 1670 nM.

B12: Ic_S4_P5E.1_K5.1_C5.1_H5.1_A5.1_[A7T]_F5.1_[T8G]_[T9C]_[A10C]_T5.1 (ssRNA)
RNA: B1 RNA with A29U, C30U, C31G, U33C
As to B12, the affinity, expressed as Kd, was 101 nM.

B13: Ic_S4_P5E.1_K5.1_C5.1_H5.1_A5.1_[T5C]_[A7G]_F5.1_[T8C]_[T9G]_[A10C]_T5.1 (ssRNA)
RNA: B1 RNA with U28C, A29U, C30G, C32G, U33C
Turning to B13, the Kd came to 1350 nM.

B14: Ic_S4_P5E.1_K5.1_C5.1_H5.1_A5.1_[T5A]_[T6C]_[A7C]_F5.1_[T9C]_[A10G]_T5.1 (ssRNA)
RNA: B1 RNA with U28A, A29C, C31U, U33G
In turn, B14 registered a Kd of 610 nM.

B15: Ic_S4_P5E.1_K5.1_C5.1_H5.1_A5.1_[T5C]_[T6A]_[A7T]_F5.1_[T8A]_[T9C]_[A10G]_T5.1 (ssRNA)
RNA: B1 RNA with U28C, C30U, C31A, U33G
As to B15, the Kd was determined as 14.5 nM.

B16: Ic_S4_P5E.1_K5.1_C5.1_H5.1_A5.1_[T5C]_[T6G]_[A7C]_F5.1_[T8G]_[A10C]_T5.1 (ssRNA)
RNA: B1 RNA with U28C, A29G, C31G, C32U, U33C
In the case of B16, the Kd is above 2300 nM.

B17: Ic_S4_P5E.1_K5.1_C5.1_H5.1_A5.1_[T6G]_[A7C]_F5.1_[T8C]_[T9C]_[A10T]_T5.1 (ssRNA)
RNA: B1 RNA with A29G
As to B17, the Kd worked out at 527 nM.

B18: Ic_S4_P5E.1_K5.1_C5.1_H5.1_A5.1_[T5A]_[T6A]_[A7T]_F5.1_[A10T]_T5.1 (ssRNA)
RNA: B1 RNA with U28A, C30U, C31U, C32U
Molecule B18 had a Kd of 16.9 nM.

B19: Ic_S4_P5E.1_K5.1_C5.1_H5.1_A5.1_[T6G]_[A7C]_F5.1_[T8A]_T5.1 (ssRNA)
RNA: B1 RNA with A29G, C31A, C32U, U33A
The molecule B19 yielded a Kd of 14.1 nM.

B20: Ic_S4_P5E.1_K5.1_C5.1_H5.1_A5.1_[T5C]_[T6C]_[A7C]_F5.1_[T8G]_[T9C]_[A10C]_T5.1 (ssRNA)
RNA: B1 RNA with U28C, A29C, C31G, U33C
B20 had a Kd of 985 nM.

UCUCUUUGUACAUUAUCUCUU (ssRNA) [Ic_S1_P4E.1_K4.1_C4.1_H4.1_A4.1_[T5C]_F4.1_T4.1] displayed a Kd of 0.601 nM.

The molecule UCUCUUUGUAUCUUCUCUCUU (ssRNA) [Ib_S1_P4E.1_K4.1_C4.1_H4.1_A4.1_[A6C]_F4.1_[A9C]_T4.1] came in with a Kd of 92.5 nM.
